Data as given in the supplement of paper PMC7877785.
± gives the uncertainty stated by the source.

Test: self-splicing fitness, log relative to wild type (ln ratio); higher = more splicing; Tetrahymena group I intron in knt gene, E. coli kanamycin selection, DiMSum; sequences stand for … in CUCUCU…GGAGGGAAAAGUUAUCAGGCAUGCACCUGGUAGCUAGUCUUUAAACCAAUAGAUUGCAUCGGUUUAAAAGGCAAGACCGUCAAAUUGCGGGAAAGGGGUCAACAGCCGUUCAGUACCAAGUCUCAGGGGAAACUUUGAGAUGGCCUUGCAAAGGGUAUGGUAAUAAGCUGACGGACAUGGUCCUAACCACGCAGCCAAGUCCUAAGUCAACAGAUCUUCUGUUGAUAUGGAUGCAGUUCACAGACUAAAUGUCGGUCGGGGAAGAUGUAUUCUUCUCAUAAGAUAUAGUCGGACCUCUCCUUAAUGGGAGCUAGCGGAUGAAGUGAUGCAACACUGGAGCCGCUGGGAACUAAUUUGUAUGCGAAAGUAUAUUGAUUAGUUUUGGAGUACUCGUGGUCG
How it was run: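 The eight P1ex-region nucleotides of an intron in the knt kanamycin-resistance gene on pET-22b(+) were all randomised and the library put into E. coli BL21(DE3). Six replicate transformations were grown overnight at 37°C or 30°C on LB agar with or without 25 μg/mL kanamycin, together with 100 μg/mL carbenicillin, 50 μM IPTG and 0.2% rhamnose. Colonies were pooled and amplicon-sequenced on an Illumina HiSeq 2500. Fitness from DiMSum is the error-weighted combination of wild-type-normalised replicate fold changes, kanamycin over none.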

| Sequence | self-splicing fitness (ln) (30 °C) | self-splicing fitness (ln) (37 °C) |
| --- | --- | --- |
| GCCCAGCAAUAUUACGUCAC | -2.87 ± 0.13 | -2.64 ± 0.22 |
| GUCCAGCAAUAUUACGAAGA | -0.611 ± 0.19 | -1.51 ± 0.24 |
| CUCCAGCAAUAUUACGUAGA | -3.31 ± 0.15 | -2.58 ± 0.16 |
| CGUCAGCAAUAUUACGCAGA | -2.79 ± 0.46 | -3.76 ± 0.46 |
| UCUCAGCAAUAUUACGUGAA | -1.14 ± 0.082 | 0.314 ± 0.1 |
| CAUUAGCAAUAUUACGGAAU | -2.87 ± 0.29 | -2.61 ± 0.31 |
| GGAAAGCAAUAUUACGAAUU | -1.96 ± 0.16 | -1.4 ± 0.12 |
| AAGUAGCAAUAUUACGACUA | -0.0153 ± 0.098 | 0.0263 ± 0.13 |
| AGAAAGCAAUAUUACGGCUC | -1.28 ± 0.091 | -0.338 ± 0.12 |
| AGCCAGCAAUAUUACGGCCA | -0.79 ± 0.089 | -0.322 ± 0.11 |
| GUGGAGCAAUAUUACGCGCA | -1.48 ± 0.43 | -1.47 ± 0.35 |
| UAGGAGCAAUAUUACGCGUA | -1.12 ± 0.15 | -0.31 ± 0.12 |
| UAGGAGCAAUAUUACGAUGG | -3.36 ± 0.28 | -1.4 ± 0.24 |
| CUUGAGCAAUAUUACGUGUG | -2.12 ± 0.07 | -0.901 ± 0.073 |
| CAUCAGCAAUAUUACGUAUG | -2.16 ± 0.14 | -1.43 ± 0.15 |
| GUAUAGCAAUAUUACGCUCG | -0.631 ± 0.15 | -0.0296 ± 0.19 |
| AGCUAGCAAUAUUACGGUGG | -2.04 ± 0.092 | -2.46 ± 0.17 |
| UACGAGCAAUAUUACGCCAA | -2.18 ± 0.41 | – |
| AUGUAGCAAUAUUACGCAUC | -3.66 ± 0.27 | -2.51 ± 0.45 |
| UUUAAGCAAUAUUACGUAUU | -2.16 ± 0.18 | -0.782 ± 0.21 |
| AACGAGCAAUAUUACGCGUU | -4.34 ± 0.2 | -2.42 ± 0.14 |
| GCGUAGCAAUAUUACGGCUU | -1.21 ± 0.11 | -0.0921 ± 0.14 |
| AAACAGCAAUAUUACGCGGA | -2.23 ± 0.11 | -1.02 ± 0.093 |
| AGAAAGCAAUAUUACGUCGC | -2.69 ± 0.16 | -1.76 ± 0.15 |
| GUGUAGCAAUAUUACGAUGC | -1.85 ± 0.16 | -0.552 ± 0.18 |

| Sequence | self-splicing fitness (ln) (30 °C) | self-splicing fitness (ln) (37 °C) |
| --- | --- | --- |
| AACCAGCAAUAUUACGACCA | -0.702 ± 0.082 | 0.122 ± 0.11 |
| UUCGAGCAAUAUUACGCGAU | -2.39 ± 0.21 | -2.11 ± 0.27 |
| GAACAGCAAUAUUACGGCAU | -0.904 ± 0.085 | -0.254 ± 0.096 |
| GUCCAGCAAUAUUACGGAUG | -0.272 ± 0.077 | 0.023 ± 0.1 |
| ACUAAGCAAUAUUACGCACC | -0.776 ± 0.12 | -0.198 ± 0.13 |
| AUACAGCAAUAUUACGAUGU | -0.929 ± 0.076 | -0.0117 ± 0.089 |
| CGCAAGCAAUAUUACGCCAA | -2.12 ± 0.27 | -3.03 ± 0.35 |
| AGCUAGCAAUAUUACGGACC | -0.63 ± 0.12 | -0.00494 ± 0.17 |
| AGCUAGCAAUAUUACGAGUU | -2.58 ± 0.16 | -2.45 ± 0.22 |
| CAAAAGCAAUAUUACGUUUC | -3.1 ± 0.28 | -2.76 ± 0.2 |
| GAAUAGCAAUAUUACGGGAU | -2.06 ± 0.13 | -2.06 ± 0.16 |
| AGGCAGCAAUAUUACGGGAC | -3.48 ± 0.23 | -1.94 ± 0.19 |
| AUCAAGCAAUAUUACGUUGG | -2.7 ± 0.13 | -2.25 ± 0.16 |
| UGCUAGCAAUAUUACGGAAG | -3.4 ± 0.35 | -2.31 ± 0.39 |
| CAUUAGCAAUAUUACGCUCG | -0.328 ± 0.11 | 0.302 ± 0.13 |
| GGCUAGCAAUAUUACGACCG | -0.745 ± 0.14 | -0.188 ± 0.21 |
| CGAAAGCAAUAUUACGAGAA | -2.51 ± 0.49 | – |
| AACGAGCAAUAUUACGAUGU | -2.35 ± 0.2 | -1.99 ± 0.17 |
| CGGUAGCAAUAUUACGAAAU | -2.91 ± 0.21 | -3.07 ± 0.37 |
| ACCGAGCAAUAUUACGGGGA | -1.87 ± 0.1 | -1.65 ± 0.1 |
| CACAAGCAAUAUUACGACAU | -3.32 ± 0.017 | -1.99 ± 0.033 |
| UACAAGCAAUAUUACGGCGC | -1.51 ± 0.085 | -0.801 ± 0.099 |
| CACCAGCAAUAUUACGAGGA | -2.74 ± 0.14 | -1.91 ± 0.13 |
| GGGUAGCAAUAUUACGAUCC | -2.2 ± 0.37 | -1.47 ± 0.5 |
| GCGAAGCAAUAUUACGUACC | -1.02 ± 0.17 | 0.269 ± 0.19 |

| Sequence | self-splicing fitness (ln) (30 °C) | self-splicing fitness (ln) (37 °C) |
| --- | --- | --- |
| AUCUAGCAAUAUUACGGUGU | -2.17 ± 0.076 | -0.462 ± 0.081 |
| UCCAAGCAAUAUUACGACUG | -3.78 ± 0.16 | -2.6 ± 0.17 |
| CACUAGCAAUAUUACGGCGU | -1.8 ± 0.12 | -0.74 ± 0.11 |
| GUCUAGCAAUAUUACGCCUU | -0.385 ± 0.16 | 0.266 ± 0.15 |
| GUUCAGCAAUAUUACGUACU | -1.24 ± 0.1 | 0.162 ± 0.13 |
| AAUUAGCAAUAUUACGUGCG | -0.879 ± 0.12 | -0.209 ± 0.14 |
| GCCCAGCAAUAUUACGAGCG | -0.449 ± 0.067 | -1.17 ± 0.1 |
| UUUGAGCAAUAUUACGACUG | -2.39 ± 0.36 | -1.03 ± 0.39 |
| CGGUAGCAAUAUUACGCACC | – | -0.162 ± 0.39 |
| AUACAGCAAUAUUACGCCUU | -0.541 ± 0.06 | -0.208 ± 0.073 |
| UAAGAGCAAUAUUACGGCGA | -2.7 ± 0.32 | -2.09 ± 0.26 |
| CCCGAGCAAUAUUACGGUCA | -4.25 ± 0.46 | -2.57 ± 0.26 |
| UAUAAGCAAUAUUACGUGAA | 0.0802 ± 0.12 | -0.933 ± 0.15 |
| ACGUAGCAAUAUUACGAGCU | -1.36 ± 0.12 | -1.06 ± 0.14 |
| CUGAAGCAAUAUUACGUGAC | -1.24 ± 0.086 | -0.353 ± 0.1 |
| GGUAAGCAAUAUUACGAACU | -1.25 ± 0.25 | -1.67 ± 0.36 |
| CUCGAGCAAUAUUACGCGAG | -3.97 ± 0.42 | -2.98 ± 0.47 |
| UGUGAGCAAUAUUACGACCA | -1.27 ± 0.17 | -0.0518 ± 0.21 |
| ACUUAGCAAUAUUACGUUAG | -2.09 ± 0.09 | -1.5 ± 0.12 |
| GUGGAGCAAUAUUACGAUGC | -1.96 ± 0.15 | -1.03 ± 0.16 |
| AUGCAGCAAUAUUACGGAGU | -1.78 ± 0.093 | -1.44 ± 0.11 |
| CGUGAGCAAUAUUACGCCUA | -1.86 ± 0.25 | -0.88 ± 0.36 |
| CGCCAGCAAUAUUACGAAGA | -2.64 ± 0.36 | -2.2 ± 0.24 |
| CAUUAGCAAUAUUACGAUGG | -0.461 ± 0.076 | 0.0641 ± 0.083 |
| ACCCAGCAAUAUUACGCACA | -1.56 ± 0.081 | -0.306 ± 0.11 |
